Measurements taken from publication PMC2928861.

What was measured:
[1] = target: ribosome-nascent chain complex (RNC) of Sec61β, TMD inside the ribosomal tunnel (UniProt P60468); assay: co-IP
[2] = target: ribosomes purified under native conditions from reticulocyte lysate; assay: co-sedimentation

Chain of UniProt P60468 (P60468 whole entry, looked up, one chain of several): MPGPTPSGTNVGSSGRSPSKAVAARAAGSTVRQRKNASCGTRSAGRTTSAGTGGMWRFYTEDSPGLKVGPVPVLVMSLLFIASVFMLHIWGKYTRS

Substance	occupancy of RNCs [1] [%]	percent ribosome-bound [2] [%]
SRP (signal recognition particle), followed by its subunit SRP54 (from UniProt P61011 1-504) (complex)	7	30 to 50
TRC40 (from UniProt O43681 1-348) (natural protein)	–	< 1
Bat3 complex (Bat3, TRC35 and Ubl4A) (from UniProt P46379;Q7L5D6;P11441)	27	–
